Experiment: yeast display, Sf9 membrane polyspecificity reagent, FACS + sequencing; frameworks hold sequencing errors
How it was run: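 Nanobodies from a synthetic yeast display library (Saccharomyces cerevisiae BJ5465), induced 36–48 hours with galactose, were stained 1 hour at 4 °C with 10% biotinylated, detergent-solubilized Sf9 membrane reagent, enriched on streptavidin microbeads, then FACS-sorted. Anti-HA (expression) and streptavidin (reagent binding) fluorescence set low and high (top ~1%) gates. Polyreactivity labels come from the gate of origin. Genes were colony-PCR amplified, MiSeq 2 × 250 sequenced and filtered by CDR length.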

Sequence	polyreactivity (PSR sort gate)
QVQLVESGGGLVQAGGSLRLSCAASGYIFPAYAMGWYRQAPGKERELVAAISWSTGSTYYADSVKGRFTISRDNAKNTVYLQMNSLKPEDTAVYYCAAGRPRRVPDHWYIYYYWGQGTQVTVSS	low polyreactivity
QVQLVESGGGLVQAGGSLRLSCAASGRIFDYNAMGWYRQAPAKERELVAAITWSGGSTHYADSVKGRFTISRDNAKNTVYLQMKSLKPEDTAVYYCAADIGGDYLVFYYRGGYDYWGQGNQVTVSS	low polyreactivity
QVQLVESGGGLVQAGGSLRLSCAASGSIFSRYTMGWYRQATGKERELVAAITSSGGSTYYADSVKGRFTISRDNAKNTVYLQMNSLKPEDTAVYYCNAVRRQWYWTAWFSARGYGYWGQGTQVTVSS	high polyreactivity
QVQLVESGGGLVQAGGSLRLSCAASGGTFRAYVMGWYRQAPGKERELVAAISRSGTRTYYADSVKGRFTISRDNAKNTVYSQLNSLKPEDTAVYYCAAAANSWLFDYWGQGTQVTVSS	high polyreactivity
QVQLVESGGGLVQAGGSLRLSCAASGRIFRHNPMGWYRQAPGKERELVAAITSRGGTYYADSVKGRFTISRDNAKNTVYFQMNSVKPEDTAVYYCAADRPIYPYPGKGFRYDYWGQGTQVTVSS	low polyreactivity
QVQLVESGGGLVQAGGSLRLSCAASGFTFSFYTMGWYRQAPGKERELVAAISTSGSTYYADSVKGRFTISRDNAKNTVYLQMNSLKPEDTAVYYCAAGRWWRYFTWHGYWGQGTQVTVSS	high polyreactivity
QVQLVESGGGLVQAGGSLRFSCAASGFTFPYYAMGWYRQAPGKERELVAAITGRGGSSYYADSVKGRFTISRDNAKNTVYLQMNSLKPEDTAVYYCAARRSSRSKRLNYWGQGTQVTVSS	high polyreactivity
QDQLVESVGGLVQAGVSLRLSCAASGGTFDVNAMGWYRQATGKERELVATISGGGSTNYADSVKGRFTISRDNAKNTVYLQMNSLKPEETAVYYCAAESEPIRNRERDYWGQGTQVTVSS	low polyreactivity
QVQLVESGVGIVQAGGSLRISCAASGTNFLFYAMGWYRQAPGKERELVATISRGGSTYYADSVKGRFTISRDNAKNTVYFQMKSLKPEDTAVYYCAARATRVTIAPRYGYWGQGTQVTVSS	low polyreactivity
QVQLVESGGGLVQAGGSLRLSCAASGYSFKSYVMGWYSQAPGKERELVAAITWSGGSTYYADSVKGRFTLSRDNAKNTVFLQMHSLKPEDTAVYYCAAYPRRYRTTYDYWGQGTQVTVSS	high polyreactivity
QVQLVESGGGLVQAGGSLRLSCAASGSTFKPNAMGWYRQAPGKERELVAAITSGSTYYADSVKGRFTISRDNAKNTVYLQMNSLKPEDTAVYYCAVVTGSFRTRYTYYYWGQGTQVTVSS	high polyreactivity
QVQLVESGGGLVQAGGSLRLSCAASGSILNSYAMGWYRQAPGKERELVASITVIGGSTYYADSVKGRFSISRDNAKNTDYLQMNSLKPEDTAVYYCNKEWIIADAYYGVHDYYYWGQGTQVTVSS	low polyreactivity
QVQLVESGGGLVQAGGSLRLNCAASGITFGYNAMGWYRQPPGKERELVAAISSRGGSTYYADSVKGRFTISRDNAKNTVYLQMNSMKPEDTAVYYCAKDGGPGRYAWYWPVRMGYWGQGTQVTVSS	high polyreactivity
QVQLVESGGGLVQAGGSLRLSCDASGRIFYNYAMGWYRQAPGTERELVAAISGSGGSTYYADSVKGRFTISRDNAKNTVYLQMNSLKPEDTAVYDCSTFGPQYYSRNFDYWGQGTLVTVSS	low polyreactivity
QVQRVESGGGLVQAGGSLRLSCAASGITFSRYAMGWYRPAPGKERELVAAISRSGTRTYYADSVKGRFTISRDNAKNTVYLQMNSLKPEDSAVYYCAAESFASSFDYWGQGTQVTVSS	high polyreactivity
QVQLVESGGGLVQAGGSLRLSCAASGSISVPYGMGWYRQAPGKERELVAAITGGSTNYADSVKGRFTISRDNAKNTVYLQMNSLKPEDTAVYYCAADVYWYYGAPELWYRYDYWGQGTQVTVSS	low polyreactivity
QVQLVESGGGLVQAGGSLRLRCAASGRIFRKYAMGWYRQAPGKERELVAAITSGGSTYYADSVKGRFTISRDNAKNTVYLQMNSLKPEDTAVYYCAAFYRGGDYWGQGTQVTVSS	high polyreactivity
QVQLVESGGGLVQAGGSLRLSCASSGRTFSYYALGWSRQAPGKERELVAAITSGGSTYYADSVKGRFTISRDNAKNTVYLQMNSLKPEDTAVYYCAADPGDDYWGQGTQVTVSS	low polyreactivity
QVQLVESGGGLVQAGGSLRLSCAASGSTFDYYAMGWYRQAPGKERELVAAISRTGGRTYYADSVKGRFTISRDNAKNTVFLQMNSLKPEDTAVYYCAARGGWVRRYGWRLDYWGQGTQVTVSS	low polyreactivity
QVQLVESGGGLVQAGGSLRLSCAASGFIFTQNAMGWYRQAPGKERELVAVIRWNGGSTYYADSVKGRITISRDNAKNTVYLQMNSLKREDTAVYYCAAEFLWIVDYWGQGTQVTVSS	low polyreactivity
QVQLVESGGGLVQAGGSLRLSCAASGYIFLPNTMGWYRQAPGKERELVAVISKSGTSTYYADSVKGRFTISRDNAKNTVYLQMNSLKPEDTAVYYCNRVYRLTAYGYDYWGQGTQVTLSS	high polyreactivity
QVQLEESGGGLVQAGGSLRLSCAASGRIIYSNGMGWYRQAPGKERELVAAISSGGSTYYADSVKGRFTISRDNAKNTVYLQMNSLKPEDTAVYYCAADIDYERDRYDYWGQGTQVTVSS	low polyreactivity

Sequence	polyreactivity (PSR sort gate)
QVQLVESGGGLVQAGGSLRLSCAASGSTFSSYAMGWYRQAPGKERELVARITSGDSTYYADSVKGRFTISRDNAKNTVYLQMNSLKPEDTAVYYCNAVAYGRTYDYWGQGTQVTVSS	high polyreactivity
QVQLVESGGGLVQAGGSLRLSCAASGFIFSCYAMGWYRQAPGKERELFAAISSSGVSTYYADSVKGRFTISRDNAKNTVYLHMNSLKPEDTAVNYCNAYGSVWDRGEYDYEYWGQGTQVTVSS	low polyreactivity
QVQLVESGGGLVQAGGSLRLSCAASGSIFRNYAMGWYRQAPGKERELVAAISRTTRTYYADSVKGRFTISRDNAKNTVYLQMNSLKPEDTAVYYCAADYVYAGFWLYYWGQGTQVTVSS	high polyreactivity
QVQLVESGGGLVQAGGSLRLSCAASGSIFYGYAMGWYRQAPGKERELVAAINWSGGGTYYADSVKGRFTISRDNAKNTVYLQMNSLKPEDTAVYYCAAGHVVRRPYLIYDYWGQGTQVTVSS	high polyreactivity
QVQLVESGGGLVQAGGSLRISCAASGFTFYRYAMGWYRQAPGKESELVAAITRSGRTYYADSVKGRFTISRDNAKNTFYLQMNSLKPEDTAVYYCYADWGLGTQVTVSS	high polyreactivity
QVQIVESGGGLVQAGGSLRLSCAASGRTFWGNAMGWYRQAPGKERELVASISSRGSSTYYADSVKGRFTISRDNAKNTVYLQMNSLKPEDTAVYYCAARTHYFPWPWYVWDYYSDGYWGQGTQVTVSS	low polyreactivity
QVQLEESGGGLVQAGGSLRLSCAASGRTFYSYAMGWYRQAPGKEREWVAAITSDGGTYYADSVKGRFTISRDNAKNTVYLQMNSLKPEDTAVYYCAAELYYWYYYWGQGTQVTVSS	low polyreactivity
QVHLVESGGGKVQAGGSLRLSCAASGGTFYQYAMGWYRQAPGKESELVAAITRSGGRTYYADSVKGRFTISRDNAKNTVYFQMNSLKPEDTAVYYCAAEDVGPPDFYYWGQGTQVNVSS	high polyreactivity
QVQLVESGGGLVQAGGSLRLSCAASGRIFSNYAMGWYRQAPGKERELVAAITRSGGSTYYADSVKGRFTISRDNAKNTVYLQMNSLKPEDTAVYYCNTAYRRRYTYDYWGQGTQVTVSS	high polyreactivity
QVQLVESGGGLLQAGGSLRLSCAASGLIFGYYAMGWYRQAPGKERELVGAITSSGTSTYYADSVKGRFTISRDNAKNTVYLQMNSLKPEDTAVYYCAAQYIGKKRFNYWGQGTQVTVSS	high polyreactivity
QVQLVESGGGLVQAGGSLRLSCAASGRIFYWYTMGWYRQAPGKERELVASISGSGGSTYYADSVKGRFTISRDNAKNTVYLQMNSLKPEDTAVYYCNKGSRWLRGLDYWGQGTQVTVSS	high polyreactivity
QVQLEESGGGLVQAGGSLRLSCAASGIIFGTNAMGWYRQAPGKERELVATISWRGGSTYYADSVKGRFTISRDNAKNTVYLQMTSLKPEDTAVYYCAAGASGQRAYRRYYWGQGTQVTVSS	high polyreactivity
QVQLVESGGALDQAGGSLRLSCAASGSTFISNAMGWYRQAPGKERELVAAISSGGGRTSYADSVKGRFTISRDNANNTVYLQMNSLKPEDTAVYYCNTKKLPYAEGYWGQGTQVTVSS	low polyreactivity
QVQLVESGGGLVQAGGSLRLSCAASGRTFFRYGMGWYRQAPGKEREFVAAITRSGTTTYYADSVKGRFTISRDNAKNTVYLQMNSLKPEDTAVYYCAAQRAARVDGKSDYWGQGTQVTVTS	low polyreactivity
QVQLVESGGGLVQAGGSLRLSCAASGRTIRYYTMGWYRQAPGKERELVATIRRGRTTYYADSVKGRFTISRDNEKNTVYLQMYSLKPEDTAVYYCAADFPSAEVDYWGQGTQVTVSS	low polyreactivity
QVQLVESGGGLVQAGGSLRLSCAASGSTFYTNAMGLYRQAPGKERELVAAISWSAGSTYYADSVKGRFTISRDNAKNTVYLQMNSLKPEDTAVYYCAAYYWYKWGYKYGYWGQGTQVTVSS	high polyreactivity
QVQLVESGGGLVQAGGSLRLSCAASGFTFGRYAMGWYRQAPGKERELVASITSGGSTYYADSVKGRFTISRDNAKNTVYLQMNSLKPEDTAVYYCAAEWRWWGGYYYWGQGTQVTVSS	high polyreactivity
QVQLVESGGGLVQAGGSLRLSCAASGSIFGKNVMGWYRQAPGKERELVAAISRSGGRTYYADSVKGRFTISRDNAKNTVYLQMNSLKPEDTAVYYCAADGQPIGQQTYDYWGQGTQVTVSS	high polyreactivity
QVQLVESGGGLVQAGGSLRLSCAASGRIFQKYAMGWYRQAPGKESELVAAISSGDSTYADSVKGRFTISRDNAKNTVYLQMNSLIPEDTAVYYCAVDLYDPWWYSYIGEYEYWGQGTQVSVSS	low polyreactivity
QVQVVESGGGLVQAGGSLRLSCAASGSIFSSYAMGWYRQAPGKERELVAAITGSGGSTDYADSVKGRFTISRDNAKNTVYLQMNSLKPEDTAVYYCAARRFWPGNSYYYRYYYWGQGTQVTVSS	low polyreactivity
QGQLVESGGGLGQAGGSLRLSCAASGSTFGDSAMVWYRQAPGKERELVAGISARGGRTYYADSVKGRFTISRDNAKNTVYLQMNSLKPEDTAVYDCNARTGYQDGSYGNDYWGQGTQVTVSS	high polyreactivity

Reference: the nanobody polyreactivity screen of Harvey et al. (2022)
